Measured values reported in paper PMC7419483, “Phenolic metabolism in the hornwort Anthoceros agrestis: 4-coumarate CoA ligase and 4-hydroxybenzoate CoA ligase” (Plant Cell Reports, 2020).

Key:
Aa4CL_1 = Aa4CL_1 (Anthoceros agrestis, UniProt A0A6M6A6J9); experiment: spectrophotometric CoA-ester formation, Michaelis-Menten; format: biochemical; settings: pH 7.0 potassium phosphate, 40 °C
From the text: spectrophotometric CoA-ester formation, Michaelis-Menten on Aa4CL_1

purified protein [1] = substrate: CC(C)(COP(=O)(O)OP(=O)(O)OC[C@H]1O[C@@H](n2cnc3c(N)ncnc32)[C@H](O)[C@@H]1OP(=O)(O)O)[C@@H](O)C(=O)NCCC(=O)NCCS; experiment: purified protein; format: biochemical, Anthoceros agrestis; settings: pH 7.0 potassium phosphate, 45 °C, co-substrates 4-hydroxybenzoic acid and ATP, MgCl2, 1 mM DTT
purified protein [2] = substrate: Nc1ncnc2c1ncn2[C@@H]1O[C@H](COP(=O)(O)OP(=O)(O)OP(=O)(O)O)[C@@H](O)[C@H]1O; experiment: purified protein; settings: pH 7.0 potassium phosphate, 45 °C, co-substrates 4-hydroxybenzoic acid and CoA, MgCl2, 1 mM DTT
purified protein [3] = substrate: O=C(O)c1ccc(O)cc1; experiment: purified protein; settings: apparent Km, pH 7.0 potassium phosphate, 45 °C, standard assay […] ATP, […] MgCl2, 500 µM CoA, 1 mM DTT
[4] = standard assay […] ATP, […] MgCl2, 500 µM CoA, 1 mM DTT
[5] = MgCl2, hydroxycinnamic acid co-substrate not stated

Aa4CL_1, sequence (A0A6M6A6J9 entry or part of it): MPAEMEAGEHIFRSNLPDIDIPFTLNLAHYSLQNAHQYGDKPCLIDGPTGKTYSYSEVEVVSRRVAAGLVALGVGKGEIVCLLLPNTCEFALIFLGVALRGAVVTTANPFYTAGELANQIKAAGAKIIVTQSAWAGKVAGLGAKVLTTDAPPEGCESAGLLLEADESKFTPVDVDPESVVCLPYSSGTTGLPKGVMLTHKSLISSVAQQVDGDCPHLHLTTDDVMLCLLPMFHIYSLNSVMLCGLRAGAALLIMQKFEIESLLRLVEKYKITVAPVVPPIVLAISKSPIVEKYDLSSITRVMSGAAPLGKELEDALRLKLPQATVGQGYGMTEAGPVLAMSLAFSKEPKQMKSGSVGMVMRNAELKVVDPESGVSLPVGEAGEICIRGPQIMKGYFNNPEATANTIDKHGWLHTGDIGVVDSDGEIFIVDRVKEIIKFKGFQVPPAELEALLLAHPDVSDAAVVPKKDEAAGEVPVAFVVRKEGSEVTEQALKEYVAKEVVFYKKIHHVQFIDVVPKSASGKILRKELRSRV

With COc1ccc(/C=C/C(=O)O)cc1O [isoferulic acid] the Km (Aa4CL_1; [4]) was 9.9 ± 1.8 µM.

For COc1cc(/C=C/C(=O)O)ccc1O [ferulic acid], the Km (Aa4CL_1; [4]) was 61.4 ± 21.9 µM.

For Nc1ncnc2c1ncn2[C@@H]1O[C@H](COP(=O)(O)OP(=O)(O)OP(=O)(O)O)[C@@H](O)[C@H]1O [ATP], the Km (Aa4CL_1; [5]) was 227 ± 31.8 µM.

In the case of O=C(O)/C=C/c1ccc(O)cc1 [4-coumaric acid], the Km (Aa4CL_1; [4]) is reported as 12.8 ± 4 µM.

For CC(C)(COP(=O)(O)OP(=O)(O)OC[C@H]1O[C@@H](n2cnc3c(N)ncnc32)[C@H](O)[C@@H]1OP(=O)(O)O)[C@@H](O)C(=O)NCCC(=O)NCCS [CoA], the Km (Aa4CL_1; [5]) was 10.2 ± 0.2 µM.

In the case of O=C(O)/C=C/c1ccccc1 [cinnamic acid], the Km (Aa4CL_1; [4]) is reported as 218 ± 74.7 µM.

With O=C(O)/C=C/c1ccc(O)c(O)c1 [caffeic acid] the Km (Aa4CL_1; standard assay […] ATP, […] MgCl2, 500 µM CoA, no DTT) was 15.5 ± 1.9 µM.

B1: Aa4HBCL (Anthoceros agrestis) (protein)
chain: MASLSEPEHIFRSSLPAAAIPNVTVPEYILLNAIRPEDEHRVAVVDASDERQYTYGQTRILVKNVAAGLRNLLGIRKGDVVFVLLPNTAEYFILVLGIMWAGGVYSGGNPYAHPGEIEKQIQDSEAKVVVTDSTYFEKVKQFAHQLPILLTPVSSAAPTDKSVTPNPEGSTSVQRLLEYDGSEYVPPEPISQDDLCALPYSSGTTGLSKGVKLTHRNLLANTTRTCPIPAVPPTPAQLASVKRYVVLGLLPFFHIYGTTGICCSTMRYQGTLVVLPRYDLRLMLAALIKYEVTFTPLVPPIILQMVKSPIVNEFDLSKLKLEGVMTAAAPLPPDIQKAFEARFPGVELRQAYGLTEYSCITLSHVPLGYPRGNAKKGSVGFLIPGTEMKILDPDTGKSLPANRAGEICVRGESTMNGYFKNEEATAATIDEQGWLHTGDVGYIDDDGDVFIVERAKELIKYKGFQVPPAELEAILVAHPLIADAAVIPIPDDEAGELPAACVVLAPNSHLNEEDVIRYVGAKVASYKKVRHVEFVSSIPKSLSGKTLRRVLKDDILKRLKKTENQLI
Molecule B1 has a Km (purified protein [1]) of 247.8 ± 19.9 µM, a Vmax (purified protein [1]) of 1.95 µmol/min/mg and a kcat (purified protein [1]) of 2.2 ± 0.1 s⁻¹. For the same molecule, the kcat/Km (purified protein [1]) was 8700 M⁻¹ s⁻¹, the Km (purified protein [2]) was 1175.3 ± 135.2 µM and the Vmax (purified protein [2]) was 1.4 µmol/min/mg. It also gave a kcat (purified protein [2]) of 1.6 s⁻¹, a kcat/Km (purified protein [2]) of 1300 M⁻¹ s⁻¹ and a Km (purified protein [3]) of 664.2 ± 1.5 µM. It also gave a Vmax (purified protein [3]) of 0.99 µmol/min/mg, a kcat (purified protein [3]) of 1.1 s⁻¹ and a kcat/Km (purified protein [3]) of 1700 M⁻¹ s⁻¹.
